One assay deals with T1, human glucagon receptor (human, UniProt P47871 26-477).
T1 construct: whole, on cells; also called hGCGR; hGcgR
Kind of assay: SPA competition vs [125I]-Gcg, hGcgR membranes. The procedure:
The binding buffer contains 25 mM 4-(2-hydroxyethyl)-1-piperazineethanesulfonic acid (HEPES), pH 7.4, 2.5 mM CaCl₂, 1 mM MgCh, 0.1% (w/v) bacitracin (Research Products), 0.003% (w/v) Polyoxyethylenesorbitan monolaurate (TWEEN®-20), and Roche Complete™ Protease Inhibitors without EDTA. […] Plates are sealed and mixed on a plate shaker (setting 6) for 1 minute and read with a PerkinElmer Trilux MicroBeta® scintillation counter after 12 hours of incubation/settling time at room temperature.
Data are analyzed using four-parameter (curve maximum, curve minimum, IC₅₀, Hill slope) nonlinear regression routines (Genedata Screener, version 12.0.4, Genedata AG, Basal, Switzerland). […] Values for Kᵢ are reported as the geometric mean, with error expressed as the standard error of the mean (SEM) and n is equal to the number of independent replicates (determined in assays performed on different days).

The next assay addresses T2, human GLP-1 receptor (human, UniProt P43220 24-463).
T2 construct: whole, on cells; also called hGLP-1R; human glucagon-like peptide-1 receptor
In words: SPA competition vs [125I]-GLP-1, hGLP-1R membranes. In outline:
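Competition binding in 25 mM HEPES pH 7.4, 2.5 mM CaCl₂, 1 mM MgCl₂, 0.1% bacitracin, 0.003% TWEEN-20, EDTA-free protease inhibitors. IC₅₀ from four-parameter nonlinear fit; Kᵢ given as geometric mean ± SEM, n = independent replicates on different days.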

In another assay the target is T3, human GIP receptor (human, UniProt P48546 22-466).
T3 construct: whole, on cells; also called hGIPR; human glucose-dependent insulinotropic polypeptide receptor
T3 sequence (looked up): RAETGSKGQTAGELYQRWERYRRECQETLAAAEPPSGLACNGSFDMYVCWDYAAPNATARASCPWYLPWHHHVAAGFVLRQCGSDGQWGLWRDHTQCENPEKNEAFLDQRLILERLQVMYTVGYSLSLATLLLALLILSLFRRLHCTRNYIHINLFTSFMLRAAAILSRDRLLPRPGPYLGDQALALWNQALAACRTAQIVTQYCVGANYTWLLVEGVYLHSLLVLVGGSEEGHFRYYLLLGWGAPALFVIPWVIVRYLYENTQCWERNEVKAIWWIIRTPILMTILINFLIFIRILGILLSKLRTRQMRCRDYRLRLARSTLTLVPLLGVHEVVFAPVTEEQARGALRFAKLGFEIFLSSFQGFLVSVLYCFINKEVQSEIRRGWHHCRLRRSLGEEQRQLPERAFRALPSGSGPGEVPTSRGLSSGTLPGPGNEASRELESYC
Kind of assay: SPA competition vs [125I]-GIP, hGIPR membranes.

The text below walks through data of patent publication US20230265151A1, “GIP/GLP1 CO-AGONIST COMPOUNDS” (priority 2020, published 2023).

As usually defined, the Ki is the dissociation constant of the complex between target and ligand, obtained from inhibition or displacement. Read a low Ki as higher affinity.

T1 sequence (P47871 26-477): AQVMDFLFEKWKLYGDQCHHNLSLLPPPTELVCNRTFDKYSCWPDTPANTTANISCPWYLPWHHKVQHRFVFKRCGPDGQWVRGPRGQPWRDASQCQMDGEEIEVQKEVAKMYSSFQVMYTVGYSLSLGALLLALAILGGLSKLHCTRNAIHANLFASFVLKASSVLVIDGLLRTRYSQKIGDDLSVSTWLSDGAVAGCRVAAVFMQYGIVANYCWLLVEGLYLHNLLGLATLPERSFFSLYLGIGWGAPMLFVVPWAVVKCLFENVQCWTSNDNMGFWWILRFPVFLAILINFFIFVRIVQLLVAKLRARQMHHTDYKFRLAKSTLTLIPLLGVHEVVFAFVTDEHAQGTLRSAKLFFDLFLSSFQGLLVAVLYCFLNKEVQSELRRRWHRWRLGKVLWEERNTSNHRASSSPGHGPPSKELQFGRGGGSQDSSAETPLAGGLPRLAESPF

B1: Y-Aib-EGT-αMeF(2F)-TSD-4Pal-SI-αMeL-LD-Orn-IAQ-Aib-K((2-[2-(2-Amino-ethoxy)-ethoxy]-acetyl)2-(γ-Glu)-CO-(CH2)12-CO2H)FI-(D-Glu)-αMeY-LIEGGPSSGAPPPSK((2-[2-(2-Am … (peptide)
peptide: YXEGTXTSDXSIXLDXIAQXKFIXXLIEGGPSSGAPPPSK
modifications: Aib2, αMeF(2F)6, 4Pal10, αMeL13, Orn16, Aib20, K21(Z1), D-Glu24, αMeY25, K40(Z1), C-term NH2; Z1=AEEA2-(γ-Glu)-CO-(CH2)12-CO2H
With B1, the Ki with human glucagon receptor turned out to be 206 nM; with human GLP-1 receptor, 2.8 nM; in the assay with human GIP receptor, 0.107 nM.

B2: Y-Aib-EGT-αMeF(2F)-TSD-4Pal-SI-αMeL-LD-Orn-K((2-[2-(2-Amino-ethoxy)-ethoxy]-acetyl)2-(γ-Glu)-CO-(CH2)10-CH3)AQ-Aib-EFI-(D-Glu)-αMeY-LIEGGP S SGAPPP … (peptide)
peptide: YXEGTXTSDXSIXLDXKAQXEFIXXLIEGGPSSGAPPPSK
modifications: Aib2, αMeF(2F)6, 4Pal10, αMeL13, Orn16, K17(Z1), Aib20, D-Glu24, αMeY25, K40(Z1), C-term NH2; Z1=AEEA2-(γ-Glu)-CO-(CH2)10-CH3
As to B2, the Ki came out at 13.9 nM with human glucagon receptor, 0.194 nM with human GLP-1 receptor and 0.0291 nM in the assay with human GIP receptor.

B3: Y-Aib-EGT-αMeF(2F)-TSD-4Pal-Aib-I-αMeL-LD-Orn-QAQ-Aib-EFIK((2-[2-(2-Amino-ethoxy)-ethoxy]-acetyl)2-(γ-Glu)-(10-(4-carboxyphenoxy)decanoyl))-αMeY-LIK((2-[2-(2-Am … (peptide)
peptide: YXEGTXTSDXXIXLDXQAQXEFIKXLIKGGPSSGAPPPS
modifications: Aib2, αMeF(2F)6, 4Pal10, Aib11, αMeL13, Orn16, Aib20, K24(Z1), αMeY25, K28(Z1), C-term NH2; Z1=AEEA2-(γ-Glu)-(10-(4-carboxyphenoxy)decanoyl)
As to B3, the inhibition constant (Ki) in the assay with human glucagon receptor was 134 nM; in the assay with human GLP-1 receptor, 0.424 nM; with human GIP receptor it was 0.0375 nM.

B4: Y-Aib-EGT-αMeF(2F)-TSD-4Pal-Aib-I-αMeL-LD-Orn-IAQ-Aib-EFIK((2-[2-(2-Amino-ethoxy)-ethoxy]-acetyl)2-(γ-Glu)-CO-(CH2)12-CO2H)-αMeY-LIK((2-[2-(2-Amino-ethoxy)-etho … (peptide)
peptide: YXEGTXTSDXXIXLDXIAQXEFIKXLIKGGPSSGAPPPS
modifications: Aib2, αMeF(2F)6, 4Pal10, Aib11, αMeL13, Orn16, Aib20, K24(Z1), αMeY25, K28(Z1), C-term NH2; Z1=AEEA2-(γ-Glu)-CO-(CH2)12-CO2H
Turning to B4, the values for the inhibition constant (Ki) with human glucagon receptor, with human GLP-1 receptor and with human GIP receptor were 135 nM, 0.939 nM and 0.114 nM, respectively.

B5: Y-Aib-EGT-αMeF(2F)-TSD-4Pal-Aib-I-αMeL-LD-Orn-IAQ-Aib-EFIK((2-[2-(2-Amino-ethoxy)-ethoxy]-acetyl)2-(γ-Glu)-(10-(4-carboxyphenoxy)decanoyl))-αMeY-LIK((2-[2-(2-Am … (peptide)
peptide: YXEGTXTSDXXIXLDXIAQXEFIKXLIKGGPSSGAPPPS
modifications: Aib2, αMeF(2F)6, 4Pal10, Aib11, αMeL13, Orn16, Aib20, K24(Z1), αMeY25, K28(Z1), C-term NH2; Z1=AEEA2-(γ-Glu)-(10-(4-carboxyphenoxy)decanoyl)
B5: the values for the Ki in the assay with human glucagon receptor, with human GLP-1 receptor and with human GIP receptor were 44.6 nM, 0.557 nM and 0.0432 nM, respectively.

B6: Y-Aib-EGT-αMeF(2F)-TSD-4Pal-αMeS-I-αMeL-LD-Orn-IAQ-Aib-EFIK((2-[2-(2-Amino-ethoxy)-ethoxy]-acetyl)2-(γ-Glu)-CO-(CH2)12-CO2H)-αMeY-LIK((2-[2-(2-Amino-ethoxy)-eth … (peptide)
peptide: YXEGTXTSDXXIXLDXIAQXEFIKXLIKGGPSSGAPPPS
modifications: Aib2, αMeF(2F)6, 4Pal10, αMeS11, αMeL13, Orn16, Aib20, K24(Z1), αMeY25, K28(Z1), C-term NH2; Z1=AEEA2-(γ-Glu)-CO-(CH2)12-CO2H
On to B6, for which the Ki came to 328 nM with human glucagon receptor, 0.863 nM with human GLP-1 receptor and 0.0491 nM with human GIP receptor.

B7: Y-Aib-EGT-αMeF(2F)-TSD-4Pal-SI-αMeL-LD-Orn-K((γ-Glu)-(2-[2-(2-Amino-ethoxy)-ethoxy]-acetyl)-CO-(CH2)12-CO2H)AQ-Aib-EFI-(D-Glu)-αMeY-LIEGGK((γ-Glu)-(2-[2-(2-Amin … (peptide)
peptide: YXEGTXTSDXSIXLDXKAQXEFIXXLIEGGKSSGAPPPS
modifications: Aib2, αMeF(2F)6, 4Pal10, αMeL13, Orn16, K17(Z1), Aib20, D-Glu24, αMeY25, K31(Z1), C-term NH2; Z1=(γ-Glu)-AEEA-CO-(CH2)12-CO2H
Turning to B7, the Ki in the assay with human glucagon receptor amounted to 458 nM; with human GLP-1 receptor, 2.02 nM; in the assay with human GIP receptor, 0.0759 nM.

B8: Y-Aib-EGT-αMeF-TSD-4Pal-SI-αMeL-LD-Orn-K((2-[2-(2-Amino-ethoxy)-ethoxy]-acetyl)2-(γ-Glu)-CO-(CH2)12-CO2H)AQ-Aib-E-αMeF-I-(D-Glu)-αMeY-LIEGGK((2-[2-(2-Amino-etho … (peptide)
peptide: YXEGTXTSDXSIXLDXKAQXEXIXXLIEGGKSSGAPPPS
modifications: Aib2, αMeF6, 4Pal10, αMeL13, Orn16, K17(Z1), Aib20, αMeF22, D-Glu24, αMeY25, K31(Z1), C-term NH2; Z1=AEEA2-(γ-Glu)-CO-(CH2)12-CO2H
As for B8, the values for the inhibition constant Ki with human glucagon receptor, with human GLP-1 receptor and in the assay with human GIP receptor were 217 nM, 29 nM and 0.0761 nM, respectively.

B9: Y-Aib-EGT-αMeF(2F)-TSDY-Aib-I-αMeL-LD-Orn-K((2-[2-(2-Amino-ethoxy)-ethoxy]-acetyl)2-(γ-Glu)-CO-(CH2)12-CO2H)AQ-Aib-EFI-(D-Glu)-αMeY-LIEGGK((2-[2-(2-Amino-ethoxy … (peptide)
peptide: YXEGTXTSDYXIXLDXKAQXEFIXXLIEGGKSSGAPPPS
modifications: Aib2, αMeF(2F)6, Aib11, αMeL13, Orn16, K17(Z1), Aib20, D-Glu24, αMeY25, K31(Z1), C-term NH2; Z1=AEEA2-(γ-Glu)-CO-(CH2)12-CO2H
As for B9, the inhibition constant Ki was found to be 42 nM with human glucagon receptor, 0.876 nM in the assay with human GLP-1 receptor and 0.0296 nM in the assay with human GIP receptor.

B10: Y-Aib-EGT-αMeF(2F)-TSDK((2-[2-(2-Amino-ethoxy)-ethoxy]-acetyl)2-(γ-Glu)-CO-(CH2)10-CH3)SI-αMeL-LD-Orn-K((2-[2-(2-Amino-ethoxy)-ethoxy]-acetyl)2-(γ-Glu)-CO-(CH2) … (peptide)
peptide: YXEGTXTSDKSIXLDXKAQXEXIXXLIEGGPSSGAPPPS
modifications: Aib2, αMeF(2F)6, K10(Z1), αMeL13, Orn16, K17(Z1), Aib20, αMeF22, D-Glu24, αMeY25, C-term NH2; Z1=AEEA2-(γ-Glu)-CO-(CH2)10-CH3
For the molecule B10, the figures for the Ki with human glucagon receptor, with human GLP-1 receptor and with human GIP receptor were 23.1 nM, 0.211 nM and 0.022 nM, respectively.

B11: Y-Aib-EGT-αMeF(2F)-TSD-Bip-SI-αMeL-LD-Orn-K((2-[2-(2-Amino-ethoxy)-ethoxy]-acetyl)2-(γ-Glu)-CO-(CH2)12-CO2H)AQ-Aib-EFI-(D-Glu)-αMeY-LIEGGK((2-[2-(2-Amino-ethoxy … (peptide)
peptide: YXEGTXTSDXSIXLDXKAQXEFIXXLIEGGKSSGAPPPS
modifications: Aib2, αMeF(2F)6, Bip10, αMeL13, Orn16, K17(Z1), Aib20, D-Glu24, αMeY25, K31(Z1), C-term NH2; Z1=AEEA2-(γ-Glu)-CO-(CH2)12-CO2H
In the case of B11, the inhibition constant (Ki) in the assay with human glucagon receptor worked out at 299 nM; in the assay with human GLP-1 receptor it was 5.17 nM; with human GIP receptor, 0.252 nM.

B12: Y-Aib-EGT-αMeF(2F)-TSD-OMeY-SI-αMeL-LD-Orn-K((2-[2-(2-Amino-ethoxy)-ethoxy]-acetyl)2-(γ-Glu)-CO-(CH2)12-CO2H)AQ-Aib-EFI-(D-Glu)-αMeY-LIEGGK((2-[2-(2-Amino-ethox … (peptide)
peptide: YXEGTXTSDXSIXLDXKAQXEFIXXLIEGGKSSGAPPPS
modifications: Aib2, αMeF(2F)6, OMeY10, αMeL13, Orn16, K17(Z1), Aib20, D-Glu24, αMeY25, K31(Z1), C-term NH2; Z1=AEEA2-(γ-Glu)-CO-(CH2)12-CO2H
For B12, the inhibition constant (Ki) in the assay with human glucagon receptor is 1920 nM; with human GLP-1 receptor, 1.15 nM; with human GIP receptor, 0.208 nM.

B13: Y-Aib-EGT-αMeF(2F)-TSD-Nle-SI-αMeL-LD-Orn-K((2-[2-(2-Amino-ethoxy)-ethoxy]-acetyl)2-(γ-Glu)-CO-(CH2)12-CO2H)AQ-Aib-EFI-(D-Glu)-αMeY-LIEGGK((2-[2-(2-Amino-ethoxy … (peptide)
peptide: YXEGTXTSDXSIXLDXKAQXEFIXXLIEGGKSSGAPPPS
modifications: Aib2, αMeF(2F)6, Nle10, αMeL13, Orn16, K17(Z1), Aib20, D-Glu24, αMeY25, K31(Z1), C-term NH2; Z1=AEEA2-(γ-Glu)-CO-(CH2)12-CO2H
As for B13, the results for the inhibitory constant (Ki) with human glucagon receptor, with human GLP-1 receptor and with human GIP receptor were 737 nM, 0.872 nM and 0.11 nM, respectively.

B14: Y-Aib-EGT-αMeF(2F)-TSD-4Pal-SI-αMeL-LD-Orn-K((2-[2-(2-Amino-ethoxy)-ethoxy]-acetyl)2-(γ-Glu)-CO-(CH2)12-CO2H)AQ-Aib-E-3,5FPhe-I-(D-Glu)-αMeY-LIEGGK((2-[2-(2-Ami … (peptide)
peptide: YXEGTXTSDXSIXLDXKAQXEXIXXLIEGGKSSGAPPPS
modifications: Aib2, αMeF(2F)6, 4Pal10, αMeL13, Orn16, K17(Z1), Aib20, 3,5FPhe22, D-Glu24, αMeY25, K31(Z1), C-term NH2; Z1=AEEA2-(γ-Glu)-CO-(CH2)12-CO2H
For B14, the Ki stood at 4290 nM with human glucagon receptor, 1.05 nM in the assay with human GLP-1 receptor and 0.121 nM with human GIP receptor.
